Experimental data: patent US20150111829A1 (PHASEBIO PHARMACEUTICALS, published 2015)

Legend:
Assay in all cases: cell-based or functional assay
[1] = target: T1, human Vasoactive Intestinal Peptide Receptor 2 (VPAC2) (human) (UniProt P41587)
T1 sequence (looked up): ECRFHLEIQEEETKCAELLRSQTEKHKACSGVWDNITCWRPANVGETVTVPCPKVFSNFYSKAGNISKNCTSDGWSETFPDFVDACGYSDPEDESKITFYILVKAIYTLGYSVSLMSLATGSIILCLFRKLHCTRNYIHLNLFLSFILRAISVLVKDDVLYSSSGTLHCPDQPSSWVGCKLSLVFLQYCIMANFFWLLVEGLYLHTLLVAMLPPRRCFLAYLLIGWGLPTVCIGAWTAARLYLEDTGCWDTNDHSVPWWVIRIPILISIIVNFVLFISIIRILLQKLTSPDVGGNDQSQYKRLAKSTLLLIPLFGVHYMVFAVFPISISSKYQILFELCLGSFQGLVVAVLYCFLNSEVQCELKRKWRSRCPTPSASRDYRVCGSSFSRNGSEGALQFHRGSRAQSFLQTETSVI

[2] = target: T2, human Vasoactive Intestinal Peptide Receptor 1 (VPAC1) (human) (UniProt P32241)
T2 sequence (looked up): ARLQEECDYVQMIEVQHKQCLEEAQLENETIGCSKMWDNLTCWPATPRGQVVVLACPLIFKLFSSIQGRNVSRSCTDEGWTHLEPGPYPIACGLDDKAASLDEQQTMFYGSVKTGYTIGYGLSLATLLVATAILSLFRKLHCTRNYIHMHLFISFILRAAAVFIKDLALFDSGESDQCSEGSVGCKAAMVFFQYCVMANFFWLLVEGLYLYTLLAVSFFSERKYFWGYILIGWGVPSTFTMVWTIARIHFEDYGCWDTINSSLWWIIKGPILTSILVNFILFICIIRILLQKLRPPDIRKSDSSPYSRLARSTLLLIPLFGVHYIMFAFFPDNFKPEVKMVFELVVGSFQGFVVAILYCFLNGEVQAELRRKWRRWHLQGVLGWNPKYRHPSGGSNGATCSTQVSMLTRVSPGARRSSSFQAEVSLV

[3] = target: T3, human Vasoactive Intestinal Peptide Receptor 1 (VPAC1) (human, UniProt P32241 31-457)
T3 sequence (looked up): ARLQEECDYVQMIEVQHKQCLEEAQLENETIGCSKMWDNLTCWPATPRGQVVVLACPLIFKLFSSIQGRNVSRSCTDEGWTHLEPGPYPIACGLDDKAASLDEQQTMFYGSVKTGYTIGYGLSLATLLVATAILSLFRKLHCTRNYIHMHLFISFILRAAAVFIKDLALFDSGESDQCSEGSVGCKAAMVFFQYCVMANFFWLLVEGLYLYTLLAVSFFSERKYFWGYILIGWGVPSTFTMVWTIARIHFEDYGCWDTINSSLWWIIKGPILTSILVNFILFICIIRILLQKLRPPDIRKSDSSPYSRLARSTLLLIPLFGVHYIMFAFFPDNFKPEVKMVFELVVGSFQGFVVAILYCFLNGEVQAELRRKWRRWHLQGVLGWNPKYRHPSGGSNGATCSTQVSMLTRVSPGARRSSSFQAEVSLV

Binder: HSDAVFTDNYTRLRKQMAVKKYLNSILN (peptide, part only; not given: ELP1-120 polymer, part only) [VIP-ELP1-120 fusion peptide PB1120]
- cAMP assay in CHO cells expressing VPAC2, fold less active than native VIP (fold less active than native VIP) [1]: 1.5
- cAMP assay in CHO cells expressing VPAC1, fold less active than native VIP (fold less active than native VIP) [2]: 1.4

B1: M-VIP-ELP1-120 fusion protein PB1046 (other)
chain: MHSDAVFTDNYTRLRKQMAVKKYLNSILNVPGVGVPGVGVPGGGVPGAGVPGVGVPGVGVPGVGVPGGGVPGAGVPGGGVPGVGVPGVGVPGGGVPGAGVPGVGVPGVGVPGVGVPGGGVPGAGVPGGGVPGVGVPGVGVPGGGVPGAGVPGVGVPGVGVPGVGVPGGGVPGAGVPGGGVPGVGVPGVGVPGGGVPGAGVPGVGVPGVGVPGVGVPGGGVPGAGVPGGGVPGVGVPGVGVPGGGVPGAGVPGVGVPGVGVPGVGVPGGGVPGAGVPGGGVPGVGVPGVGVPGGGVPGAGVPGVGVPGVGVPGVGVPGGGVPGAGVPGGGVPGVGVPGVGVPGGGVPGAGVPGVGVPGVGVPGVGVPGGGVPGAGVPGGGVPGVGVPGVGVPGGGVPGAGVPGVGVPGVGVPGVGVPGGGVPGAGVPGGGVPGVGVPGVGVPGGGVPGAGVPGVGVPGVGVPGVGVPGGGVPGAGVPGGGVPGVGVPGVGVPGGGVPGAGVPGVGVPGVGVPGVGVPGGGVPGAGVPGGGVPGVGVPGVGVPGGGVPGAGVPGVGVPGVGVPGVGVPGGGVPGAGVPGGGVPGVGVPGVGVPGGGVPGAGVPGVGVPGVGVPGVGVPGGGVPGAGVPGGGVPGWP
- cAMP assay in CHO cells expressing VPAC1, fold less active than native VIP [3]: ~11 fold less active than native VIP
